Results on four sequences are retold here after the supplement of paper PMC10567573.

± gives the standard deviation.

A short description of this series: protein stability index of a GFP-peptide fusion (GPS, HEK-293T) (PSI 1-6); higher = more stable. Particulars: c terminus: a fixed tail appended.
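Also: 24-mer peptide tiles fused after GFP, lentivirally expressed, FACS-sorted into six equal bins by GFP/DsRed ratio, decoded by Illumina sequencing, PSI is the read-weighted mean bin number.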

On to GHLFPPPTPIFAGGANDRWVRSVS [WSB1], for which the protein stability index by setting is: (treatment: DMSO) 2.66 ± 0.18; (treatment: MLN4924 1 uM, 8 h) 2.39 ± 0.4.

For the sequence YQKAAEEVEAKFKRYESHPVCADL [CHCHD3], the protein stability index was found to be 4.26 ± 0.14 (treatment: DMSO) and 4.25 ± 0.28 (treatment: MLN4924 1 uM, 8 h).

As to IENLAKANPQYTVYSQASTMSIPV [PPP2R5C], the protein stability index (treatment: DMSO) is 2.8 ± 0.22 and the protein stability index (treatment: MLN4924 1 uM, 8 h) was found to be 2.65 ± 0.25.

In the case of PLNCAPCPRRSEPVVQCQYPSGAE [IRX6], the protein stability index (treatment: DMSO) is 3.93 ± 0.14 and the protein stability index (treatment: MLN4924 1 uM, 8 h) came out at 3.94 ± 0.12.
